The values below come from US6627200.

A value given as a limit tells only on which side of the number the result lay.

The target in the assay is CD137 ligand expressed by the monocytes (human) (UniProt P41273). Nature of the assay: cell-based or functional assay.
Chain of UniProt P41273 (P41273 whole entry): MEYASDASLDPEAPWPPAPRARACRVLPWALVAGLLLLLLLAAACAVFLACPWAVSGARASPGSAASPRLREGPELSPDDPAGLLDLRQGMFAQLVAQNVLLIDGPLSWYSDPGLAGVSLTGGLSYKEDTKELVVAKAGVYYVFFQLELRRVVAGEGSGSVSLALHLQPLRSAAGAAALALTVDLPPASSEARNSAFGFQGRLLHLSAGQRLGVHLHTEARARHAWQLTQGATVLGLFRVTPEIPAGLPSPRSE

As to “Recombinant CD137-Fc protein, consisting of the extracellular domain of human CD137 and the constant domain of human immunoglobulin G1 (Fc) (from UniProt Q07011 18-186) (Fc fusion)”, the 3H-thymidine incorporation of peripheral monocytes on immobilized CD137-Fc, against control cells was more than 30 fold.
